Data published in article PMC7707563, “Lack of evidence for expression and function of IL-39 in human immune cells” (PLoS ONE, 2020).

T1: human IL-23 p19 (aa20-189) (human, UniProt Q9NPF7 20-189)
T1 construct: human IL-23 p19 subunit, aa20-189, ORF in the mammalian expression vector pRS5a, untagged; The stated range lacks the protein's own signal peptide, yet the protein is secreted; also called IL-23A-p19; source: HEK293FT, transfected (pRS5a-IL23p19), in concentrated supernatant
T1 sequence (looked up): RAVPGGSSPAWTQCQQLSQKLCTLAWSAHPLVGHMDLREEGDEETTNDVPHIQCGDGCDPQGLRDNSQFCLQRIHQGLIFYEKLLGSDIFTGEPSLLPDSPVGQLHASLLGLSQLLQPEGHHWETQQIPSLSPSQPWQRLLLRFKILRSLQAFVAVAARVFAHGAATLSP

B1: C-terminally 10 x His-tagged EBI3 (natural protein, human, UniProt Q14213 21-229, looked up)
chain: RKGPPAALTLPRVQCRASRYPIAVDCSWTLPPAPNSTSPVSFIATYRLGMAARGHSWPCLQQTPTSTSCTITDVQLFSMAPYVLNVTAVHPWGSSSSFVPFITEHIIKPDPPEGVRLSPLAERQLQVQWEPPGSWPFPEIFSLKYWIRYKRQGAARFHRVGPIEATSFILRAVRPRARYYVQVAAQDLTDYGELSDWSLPATATMSLGK
notes: human Epstein-Barr Virus-induced 3 (EBI3), aa21-229, ORF in the mammalian expression vector pRS5a; The limits aa21-229 are printed for EBI3; also called EBI3-His; His-EBI3; source: HEK293FT, transfected (pRS5a-EBI3-His10), in concentrated supernatant; not shown: His10, C-terminal, kept

Key:
[1] = target: human IL-23 receptor on HEK-Blue IL-23 cells (human) (UniProt Q5VWK5)
[2] = target: T1, human IL-23 p19 (aa20-189); assay: ELISA; sandwich: plate coated with anti-p19 antibody, concentrated supernatants of p19 and EBI3-His transfected HEK293FT cells 2 hrs at room temperature, detection with biotinylated EBI3 antibody and HRP-Avidin; settings: partners not purified

human IL-23 receptor on HEK-Blue IL-23 cells (human), sequence (Q5VWK5 24-629): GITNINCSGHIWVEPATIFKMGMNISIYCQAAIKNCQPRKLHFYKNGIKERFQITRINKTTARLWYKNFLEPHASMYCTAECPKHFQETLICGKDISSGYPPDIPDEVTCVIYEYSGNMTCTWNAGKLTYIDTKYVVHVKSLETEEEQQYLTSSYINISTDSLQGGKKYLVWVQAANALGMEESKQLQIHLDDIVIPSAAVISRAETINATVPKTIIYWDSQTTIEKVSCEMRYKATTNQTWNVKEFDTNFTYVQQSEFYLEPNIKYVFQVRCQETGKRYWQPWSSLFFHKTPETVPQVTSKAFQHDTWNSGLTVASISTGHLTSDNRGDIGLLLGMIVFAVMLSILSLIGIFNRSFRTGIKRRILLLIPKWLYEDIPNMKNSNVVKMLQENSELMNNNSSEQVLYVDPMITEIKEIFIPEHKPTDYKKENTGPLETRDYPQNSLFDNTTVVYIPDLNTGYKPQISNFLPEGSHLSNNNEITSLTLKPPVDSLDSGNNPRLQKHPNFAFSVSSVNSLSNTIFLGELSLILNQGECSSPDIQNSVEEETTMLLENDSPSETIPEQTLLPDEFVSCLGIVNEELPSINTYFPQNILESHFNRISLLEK

| Molecule | STAT3 activity (SEAP reporter) over background in HEK-Blue IL-23 cells, various concentrations of IL-23, concentration-dependent; number printed for 2 pM IL-23 [1] | fold increase in optical density against supernatants of mock or single transfected cells [2] |
| --- | --- | --- |
| recombinant human IL-23 (from UniProt Q9NPF7 20-189; P29460 23-328) (complex) | 2.5 fold |  |
| B1 |  | ~2.5 fold |
